Measurements as given in publication PMC6580467.

Target: C-type lectin-like receptor 2 (CLEC-2) on platelets (human (endogenous in platelets of healthy donors)) (UniProt Q9P126)
UniProt Q9P126, sequence (Q9P126 whole entry): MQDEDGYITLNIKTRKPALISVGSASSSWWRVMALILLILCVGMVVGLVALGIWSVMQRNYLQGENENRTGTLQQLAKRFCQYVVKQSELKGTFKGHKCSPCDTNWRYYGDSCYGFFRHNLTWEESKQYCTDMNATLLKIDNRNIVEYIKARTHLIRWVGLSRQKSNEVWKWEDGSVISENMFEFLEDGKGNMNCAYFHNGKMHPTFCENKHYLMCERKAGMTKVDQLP

Row | Binder | inhibition by mAb SZ168 (10, 15 μg/mL) of platelet aggregation induced by NCI-H226 cells in human platelet-rich plasma; maximal inhibition ratio | inhibition by mAb SZ168 (15, 20 μg/mL) of platelet aggregation induced by C8161 cells in human platelet-rich plasma; maximal inhibition ratio at 20 μg/mL | inhibition by mAb SZ168 (20, 25 μg/mL) of platelet aggregation induced by CNE-2 cells in human platelet-rich plasma; maximal inhibition ratio at 25 μg/mL | inhibition by mAb SZ168 (10, 15 μg/mL) of platelet aggregation induced by CHO/hPDPN cells in human platelet-rich plasma; maximal inhibition ratio
1 | Podoplanin (PDPN), endogenous on human cancer cell lines (natural protein) ASTGQPEDDTETTGLEGGVAMPGAEDDVVTPGTSEDRYKSGLTTLVATSVNSVTGIRIEDLPTSESTVHAQEQSPSATASNVATSHSTEKVDGDTQTTVEKDGLSTVTLVGIIVGVLLAIGFIGAIIVVVMRKMSGRYSP | 74.2% | 73.9% | 77.1% | –
2 | Human podoplanin expressed on CHO cells (CHO/hPDPN) (natural protein) ASTGQPEDDTETTGLEGGVAMPGAEDDVVTPGTSEDRYKSGLTTLVATSVNSVTGIRIEDLPTSESTVHAQEQSPSATASNVATSHSTEKVDGDTQTTVEKDGLSTVTLVGIIVGVLLAIGFIGAIIVVVMRKMSGRYSP | – | – | – | 72.6%
